Experimental data from the nanobody polyreactivity screen of Harvey et al. (2022).

Assay: yeast display, Sf9 membrane polyspecificity reagent, FACS + sequencing; frameworks hold sequencing errors
How it was run: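 A synthetic nanobody library was expressed on Saccharomyces cerevisiae BJ5465 by galactose induction for 36–48 hours. The library was stained for 1 hour at 4 °C with 10% biotinylated, detergent-solubilized Sf9 membrane reagent and enriched with streptavidin microbeads before FACS. Low and high (top ~1%) gates were set on anti-HA fluorescence for expression and streptavidin fluorescence for reagent binding, and each polyreactivity label reflects the gate of origin.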

Sequence	polyreactivity (PSR sort gate)
QVQLVESGGGLVQAGGSLRLICAASGLIFPSYAMGWYRQAPGKERELVAGINSGGSTNYADSVKGRFTISRDNAKNTVYLQMNSLKPEDTAVYYCAKDNNYYWYVSPRDYWGQGTQVTVSS	low polyreactivity
QVQLVESGGGLVQAGGSLRLICAASGLTFHPYAMGWYRPAPGKERELVAAISSRGTSTYYADSVKGRFTISRDNAQNTVYLQMNCLKPEDTAVYYFAARHGPRAEAMYYWGQGTQVTVSS	high polyreactivity
QVQLVESGGGLVQAGGSLRLICAASGLTFHRYAMGWYRQAPGKERELVAAINYSGGRTYYADSVKGRFTISRDNAKNTVYLQMNSLKPEDTAVYYCAAPRASGYYWGQGTQVTVSS	high polyreactivity
QVQLVESGGGLVQAGGSLRLICAASGLTFKRYAMGWYRQAPGKEREFVAAISAGGASTHYADSVKGRFTISRDNAKNTVYLQMNSLKPEDTAVYYCATDYRSFRPSFGYWGQGTQVTVSS	low polyreactivity
QVQLVESGGGLVQAGGSLRLICAASGLTFKSNTMGWYRQAPGKERELVAAISRSGGRTYYADSVKGRFTLSRDNAKNTVYLQMNSLKPEDTAVYYCAALYHTYLTWREDYWGQGTQVTVSS	high polyreactivity
QVQLVESGGGLVQAGGSLRLICAASGNIFTQYGMGWYRQAPGKERELVAAISRRGGSTYYADSVKGRFTISRDNAKNTVYLQMNSLKPEDTAVYYCARRTNRPPWGFEYWGQGTQVTVSS	high polyreactivity
QVQLVESGGGLVQAGGSLRLICAASGNTFSAYGMGYYRQAAGKERELVAGITNGGSTNYADSVKGRFTISRDNAMNTVYLQMNSLKPEDTAVYYCATVQYVEPPTPVDYWGQGTQVTVSS	low polyreactivity
QVQLVESGGGLVQAGGSLRLICAASGNTFYYYAMGWYRQAPGKERELVASITSTARTYYADSVKGRFTISRDNAKNTGYLQMNSLKPEDTAVYYCNAKEHYATRSDSCGQGTQVTVSS	high polyreactivity
QVQLVESGGGLVQAGGSLRLICAASGPTFTKANAMVWYRQAPGKERELVAAITDGGSTYADSVKGRFTNSRDNSKNTVYLQMNCLKPEDTAVYYCAKENEVFYDASYDYWGQGTQVTVSS	low polyreactivity
QVQLVESGGGLVQAGGSLRLICAASGRIFCRNTMGWYRQAPGKERELVAAINYSGGRTYYADSVKGRFTISRDNAKNTVYLLMNSLKPEDTAVYYCAATPPVATNGRYYYWGQGTQVTVSS	low polyreactivity
QVQLVESGGGLVQAGGSLRLICAASGRIFGDNAMGWYRQAPGKERELVAGIRWRADRTYYADSVKGRFTISRDNAKNTFYLQMNSLKPEDTAVYYCAARGGGYYDFDYWGQGTQVTVSS	low polyreactivity
QVQLVESGGGLVQAGGSLRLICAASGRIFGVYAKGWYRQAPGKERDFVATNSNRGGGSTYYADSVKGRFTISRDNAMNTVYLQMNSLKPEDTSVYYCNVRARYPFGYDYWGQGTQVTVSS	high polyreactivity
QVQLVESGGGLVQAGGSLRLICAASGRIFGYNAMGWSRQAPGKERELVAAIRGSGSTYYADSVKGRFTISRDNAKNTVYLQMNSLKPEDTAVYYCAARTSSTKYYYWGQGTQVTVSS	high polyreactivity
QVQLVESGGGLVQAGGSLRLICAASGRIFHPYAMAWYRQAPGKERELVATISWSGGSTTYEDSVKGRFTISRDNAKNTVYLQMNSLKPEDTAVYYCNADYWWSYVRFVYWGQGTQVTVSS	low polyreactivity
QVQLVESGGGLVQAGGSLRLICAASGRIFKNNAMGWYRQAPGKEREFVAAISSIGGRTYYADSVKGRFTISRDNAKNTVYLQMISLKPEDTAVYYCAARGYTGGLWYDYWGQGTQVTVSS	high polyreactivity
QVQLVESGGGLVQAGGSLRLICAASGRIFLRNDMGWYRQAPGKERELVAGISSDGSTYYADSVNGRFTISRDNAKNTVYLQMNSLKPEDTAVYYCAAERWGNPTDYQFWRPYDYWGQGTQVTVSS	low polyreactivity

Sequence	polyreactivity (PSR sort gate)
QVQLVESGGGLVQAGGSLRLICAASGRIFRGNAMGWYRQAPGKEMELVDTITIRGGSTYYADSVKGRFTISRDNAKNTVYLKMNSLIPEDTAVYYCNTRTYGYLTQKYDYWGQGTQVTVSS	high polyreactivity
QVQLVESGGGLVQAGGSLRLICAASGRIFRYYAMGWYRQAPGKERELVASISWRGGSTYYADSVKGRFTISRDNAKNTVYLQMNSLKPDDTAVYYCNAAPGAFYRWWGFGSDYWGQGTQVTVSS	high polyreactivity
QVQLVESGGGLVQAGGSLRLICAASGRIFYINAMGWYRQPPGKERELVAAITGGDGSTTYADSVKGRFTISRDNAKNTVYLQMNSLKPEDTAVYYCYADTARKYAESQFDHWGQGTQVTVSS	low polyreactivity
QVQLVESGGGLVQAGGSLRLICAASGRIFYNYVMGCYRQAPGKERDLVAAISVSSGNTYYADSVKGRFTISRDYAKITVYLQMNSLKPEDTAVYYCARLRTVGGYSKYDYWGQGTQVTVSS	low polyreactivity
QVQLVESGGGLVQAGGSLRLICAASGRIIARNAMGWYRQAPGKERELVAAITARGARTYYADSVKGRFTISRDNAKNTVYLQMNSLKPEDTAVYYCAVVQGNVYYTGDDYWGQGTQVTVSS	high polyreactivity
QVQLVESGGGLVQAGGSLRLICAASGRILSYYAMGWYRQAPGKERELVATINSGGSTNYADSVKGRFTISRDNAKNTVYLEMNSLKPEDTAVYYCAASPVWWYEYWGQGTQVNVSS	low polyreactivity
QVQLVESGGGLVQAGGSLRLICAASGRILYGNVMGWYRQAPGKERELVAAIDSSGATTYYADSVKGRFTISRDNAKNTVYLQMNSLKPEDTAVYYCAAEVTSFSFGGDATEYYWGQGTQVTVSS	low polyreactivity
QVQLVESGGGLVQAGGSLRLICAASGRISAFNAMGWYRQAPGKERELVAAINVSGGNTYYADSVKGRFTISRDNAKNTVYLQMNSMKPEDTAVYYCAAERRRWGLDYYYWGQGTQVTVSS	high polyreactivity
QVQLVESGGGLVQAGGSLRLICAASGRIYYGYAMGWYRQAPGKERELVSTITWSGGSTYYADSVKGRFTISRDNAKNTVYLQMNSLKPEDTAVYYCAAYSPYIYQAYRYDYWGQGTQVTVSS	low polyreactivity
QVQLVESGGGLVQAGGSLRLICAASGRTFAYNAMGWYRQAPGKERELVAAISYRGTTTYYADSVKGRFTISRDNAKNTVYLQMNSLKPEDTAVYYCNKVGTRFSAYSSGFVLSEYYYWGQGTQVTVSS	high polyreactivity
QVQLVESGGGLVQAGGSLRLICAASGRTFAYYAMGWYIQAPGKERELVAAISSSGGRTYYADSVKGRFTISRDNAKNTVYLQMNSLKPEDTAVYFCAAYTTVKKNGYWGQGTQVTVSS	high polyreactivity
QVQLVESGGGLVQAGGSLRLICAASGRTFDHNAMGWYRQAPGKERELVAAITWSGGITDYADSVKRPFTISRDNAKNTVYLQMNSLKPEDTAVWGQGTQVTVSS	low polyreactivity
QVQLVESGGGLVQAGGSLRLICAASGRTFDRYDMGWYRPAPGKERALVATISSSGGSTYYADSVKGRFTISRDNAKNTVYLQMNSLKPEDTAVYYCAADPSGYYWGQGSQVTVSS	low polyreactivity
QVQLVESGGGLVQAGGSLRLICAASGRTFGVYAMGWYRQAPGKERELVADITSGGGTYYADSVKGRFTILRDNAKNTFYLQMNSLKPEDTAVYYFAARKWYYAYDYWGQGTQVTVSS	high polyreactivity
QVQLVESGGGLVQAGGSLRLICAASGRTFKFNAMGWYRQAPGKERELVARITGGRTNYADSVKGRFTISRDNAKNTVYLQLNSLKPEDTAVYYCAADRYYGYSQDRRRYGYWGQGTQVTVSS	high polyreactivity
QVQLVESGGGLVQAGGSLRLICAASGRTFKYYAMGWYRPAPGKERELVATISFRGGSTYYADSVKGRFTISRDNAKNTVYLQMNSLKPEDTSVYYCAATTPYYTPRRRNDYWGQGTQVTVSS	high polyreactivity
